Assay results: the DeepSol protein solubility set

Assay: soluble on expression in E. coli; label from the status in PepcDB or PDB records

| Sequence | soluble on expression in E. coli |
| --- | --- |
| MTPLSSPLSQYWQTVVERLPEGFTETSLSAQAKSVLTFSDFALDSVIAHPEWLAELESASPQADEWRHYAGWLQEALAGVCDDASLMRELRLFRRRIMVRIAWAQTLSLVDDETILQQLSHLAETLIVGARDWLYAACCREWGTPCNPQGVPQPLLILGMGKLGGGELNFSSDIDLIFAWPEHGETRGGRRELDNAQFFTRLGQRLIKALDQPTMDGFVYRVDMRLRPFGDSGPLVLSFAALEDYYQEQGRDWERYAMVKARLMGDNDDAWSRELRAMLRPFVFRRYIDFSVIQSLRNMKGMIAREVRRRGLKDNIKLGAGGIREIEFIVQVFQLIRGGREPSLQSRSLLPTLDAIAALHLLPENDVAQLRVAYLFLRRLENLLQSINDEQTQTLPADDLNRARLAWGMKAENWPQLVGELTDHMANVRRVFNELIGDDEADTPQEEERSEPWREVWQDALQEDDSTPVLAHLADEDRRQVLTLIADFRKELDKRPIGPRGRQVLDQLMPHLLADVCSREDAAVTLSRITPLLAGIVTRTTYLELLSEFPGALKHLIMLCAASPMIASQLARYPLLLDELLDPGTLYQPTATDAYRDELRQYLLRVPEEDEEQQLEALRQFKQAQLLRIAAADIAGTLPVMKVSDHLTWLAEAMIDAVVQQAWTQMVARYGQPAHLDERQGRGFAVVGYGKLGGWELGYSSDLDLIFLHDCPMDVMTNGEREIDGRQFYLRLAQRIMHLFSTRTSSGILYEVDARLRPSGAAGMLVTSADAFADYQQHEAWTWEHQALVRARVVYGDPQLTSQFDAVRRTIMTTARDGKTLQTEVREMREKMRAHLGNKHRDRFDIKADEGGITDIEFIAQYLVLRYAHEKPKLTRWSDNVRILELLAQNGIMDEHEAQALTVAYTTLRDELHHLALQELPGHVAQTCFSKERALVQASWRKWLVAV | soluble |
| MTQDPHQTADILIIGGGLSGSMLAAQLLRRPGQRRILIIETRSELGRGEAYSATEPGHTLNGNAARMSVDPDNAHDLTEWLTGYLAEGGWPEAAEQKIPVAELFPPRGVFGLYVQQRLREAQVVGEGFGSTVGHVRAEAVDVQVSEQGVSVTLADGRELRGSQAVLATGMYAASRTPQRESNALNAASLDPWDVSVMQQLDPQTRVLIIGSGLTMVDALVSLEKAGHRGPIQVFSRHGLLPHVRRQPPEWSDFLAQDPSIRSTRQLVRKVREQCELAIESGIDWQAPLDTVRANVGRLWNQATDTQRRQFVRHVRPWWESHHHRSPPPSAALLARLVKQGRLSIEAASLQGVASLPSGQVQISVRRRGEHEPTHILGDALINSTGIEYDWRRVDRPLPRQLLARGLIQPGPLALGIAAAHDGAVLDAQGQRSAHLFAMGPPLRGMWWESTAVTDVAIQAKALAMRLALEHHHHHH | soluble |
| MTQIGLYPSALTKPFELSLSAIKSVLEPENPSYSKRVPNCQKCGQHGRKSRLKGHKRSCPFRECPCAKVCVFSNKRSSRVSLE | not soluble |
| MTQTNRVIIFDTTLRDGEQSPGAAMTKEEKIRVARQLEKLGVDIIEAGFAAASPGDFEAVNAIAKTITKSTVCSLSRAIERDIRQAGEAVAPAPKKRIHTFIATSPIHMEYKLKMKPKQVIEAAVKAVKIAREYTDDVEFSCEDALRSEIDFLAEICGAVIEAGATTINIPDTVGYSIPYKTEEFFRELIAKTPNGGKVVWSAHCHNDLGLAVANSLAALKGGARQVECTVNGLGERAGNASVEEIVMALKVRHDLFGLETGIDTTQIVPSSKLVSTITGYPVQPNKAIVGANAFSHESGIHQDGVLKHRETYEIMSAESVGWATNRLSLGKLSGRNAFKTKLADLGIELESEEALNAAFARFKELADKKREIFDEDLHALVSDEMGSMNAESYKFISQKISTETGEEPRADIVFSIKGEEKRASATGSGPVDAIFKAIESVAQSGAALQIYSVNAVTQGTESQGETSVRLARGNRVVNGQGADTDVLVATAKAYLSALSKLEFSAAKPKAQGSGTI | not soluble |
| MTQTVDIENTDNVLSRRDSNAETQQMLRQRFETQPDLMPAQLASELGIAELEVVTALPQAQRVFLPLAHMDELLQSLPEWGSLTTIVMLSGSVFEFKGDFPQGKFAHGYYNLYSKGDGLHGHLKLDGMRAIALISRPFRGSESHSINFFGPQGEVVFKVYLGRDKQRVLFPDQVRRFKALAATFAD | soluble |
| MTQVIIDGDACPVTNSIIELTKGTGIFVTVVRSFSHFSTVIQPEHVNIIYVDDGPDAVDYRIVKLVHSDDLVVTQDYGLASLLLNKAKIVMHHKGFIYNQENINTLLEQRHASAQFRKSGGRTKGPAAFTEEDVSKFESIFSNLIHKYFLETEDLEHHHHHH | soluble |
| MTQVLVRNGIQAVGDGLTSLIIVGKKSVLKNVTFEGKFKEVAQKFVTDGDSWNSMISRIPASGRHPLHYELAHLITVPDASSRGNTPTNAHSIYKELKPINYPEDTKNVHFVLFAEYPDVLSHVAAIARTFCKFSMKTSGIRELNVNIDVVCDKLTNEDAVFLTDLSESVRETARLIDTPANILTTDALVDEAVKVGNATGSKITVIRGEELLKAGFGGIYHVGKAGPTPPAFVVLSHEVPGSTEHIALVGKGVVYDTGGLQIKTKTGMPNMKRDMGGAAGMLEAYSALVKHGFSQTLHACLCIVENNVSPIANKPDDIIKMLSGKTVEINNTDAEGRLILADGVFYAKETLKATTIFDMATLTGAQAWLSGRLHGAAMTNDEQLENEIIKAGKASGDLVAPMLFAPDLFFGDLKSSIADMKNSNLGKMDGPPSAVAGLFIGAHIGFGEGLRWLHLDIAAPAEVGDRGTGYGPALFSTLLGKYTSVPMLKQ | soluble |
| MTQWKNALSEGQLQQALELLIEAIKASPKDASLRSSFIELLCIDGDFERADEQLMQSIKLFPEYLPGASQLRHLVKAAQARKDFAQGAATAKVLGENEELTKSLVSFNLSMVSQDYEQVSELALQIEELRQEKGFLANDTSFSDVRDIDDRLGGYIELFSTAGNYFLVPIASINTLEIKSATSLLESVWRPVEFDIDGLGEGEGHMPMTYVDSESDAQKLGRETDWKQIADKEVYLGLGLKCWLVGEMALPISDLQNLQVIKELALEHHHHHH | soluble |
| MTRAQPEPVQVVKQRRDAALRALVSGVPYITYLGIQFDRRGDELTAVLPFDEKLIGNPMLPAIHGGVTAAFLEVASIIELSWSVLWHEMEQGRLDPDQIEARLPRLPKTIDFTVDYLRSGLPRDAYARARVNRSGRRYASVHVEAWQDNRLRPFAQATGHFLMPARNDLEHHHHHH | soluble |
| MTREAFAPYQCLATDLLKYLPSDQNDGSHDLAHIHRVWVNAHRIQRVEGGDLEILLAATVLHDCVAVEKHSPLRGQASTLSANKAASVLAEMGWPSGRVEQVVHAIKTHSYSAGFEPLTREACILQDSDRLDAIGAVGIARCFYVAGRMGSALYDFENPFAQQRAYQDGAYAIEHFQTKLLKLASGFKTQEGARLAAERHTRLETFLTQFMDEITGAGLEHHHHHH | soluble |
| MTRLAEILDQMSAVLNDLKTVMDQEQQHLSMGQINGSQLQWITEQKSSLLATLDYLEQLRRKEPNTANSVDISQRWQEITVKTQQLRQMNQHNGWLLEGQIERNQQALEMLKPHQEPTLYGANGQTSTTHRGGKKISILEHHHHHH | soluble |
| MTRNGTTSLQHDEMDTTSPPSGSGSGTAPPTTATSPPDYATAATLRSTPAQMSAAITVDLVVAAQREANFLRMIDRKAPLLYEPDVVNHALRRYETFWLPMQAAHPDLNVIPPLDVHWVWHTHMLSPIHYQEDCEKLVGKIIDHKLLSSDEIQKRYDSSVRAWDSYCSAEPYDFLASQTPPTAYKTKCNYDIAGAVQRQRNFNYQVSLPHYTSAKFLSDAVKRYIQFLLLKQTYADQFLTPCYDFDIIWHTHQVHPSSYLRDCTAIFGSLLKHDDTVNDRTKGSKLLKGEALTKKLWTTHFDEPFWRRGCMFRGHNAPAFLGFESQDLACISYGDIHVPSISLKDIPVQREQLRLKLCYGNKKVTTFNADLSQKQVTKSGFSLVWQPTESSTCASIVKFPFERRAAKDLTVELEIFDKMFLQRKDLIKLIGKATLDQLLPPSNSKSAHNVAELQLKASKDSEFTAKVNVTTSVNLNRELQLLVGDFVERQLSADSHLAYLAQCASLNRGALNANSTVHIASHSMVDTRDGTKYTVQVIHSAPLLLSMILVYGREQRLLSMAHLIGADSLPSRDQLDNNLVPFLPHLSNAEERAFVILNKEGDYAIIKGKWSGFSRKQSATKGQKAKPGNPGRLHVDAFNLLKNTVQKLEVPSADGSALFLIGDAQARLPGKRIECRSTNTAEQIASIFCVATLFVLCNPDKIRSRNDSTSVGHQAHKWPLTLACGYGRQLPTNRLLLSADQDGLGGCEIAPMLMCGVGCDGAACGACGACGACGACGGCGGCGGCGGCGGCG | not soluble |
| MTRPKLELSDDEWRQKLTPQEFHVLRRAGTERPFTGEYTDTTTAGIYQCRACGAELFRSTEKFESHCGWPSFFDPKSSDAVTLRPDHSLGMTRTEVLCANCDSHLGHVFAGEGYPTPTDKRYCINSISLRLVPGSV | soluble |
| MTRTELTQYLADFLRVSAFKDYAPNGLQVEGKAEIRTIVTGVTACQALIDEAIRLKADAILVHHGFFWKSEPEVITGMKQRRIKALLAHDINLFGYHLPLDAHPMLGNNATLGRKLGILDAEAVEDVAQGLVWRGKLDLPMSASEFAAMLAEVLGRDPLHIGESSDEIQYLAWCTGGAQDYIDVAASLGVDAFISGEVSERTYHSAVEQGIHYYAAGHHATERFGIEALGRHLAREFNLVHHFVDITNPVLEHHHHHH | soluble |
| MTRTVSMSTAINEAMKISMRRDENVILIGEDVAGGAQVDHLQDDEAWGGVLGVTKGLVQEFGRNRILDTPISEAGYMGAAMAAAATGLRPIAELMFNDFIGSCLDQVLNQGAKFRYMFGGKAKVPVTVRTMHGAGFSAAAQHSQSLYALFTSIPGIKVVVPSTPYDAKGLLLAAIEDDDPVIFFEDKTLYNMKGEVPEGYYTIPLGKADIKREGSDVTIVAIGKQVHTALAAAEQLAKKGLEVEVIDPRSLSPLDEDTILSSVEKTNRLIVIDEANPRCSIATDIAAIVADRGFDLLDAPIKRITAPHTPVPFSPPLEKLYLPTPEKVIETVSEMIGDQSLLHV | not soluble |
| MTSAYFGVAGGGNAGAQSAYFGVGGGPAGGGGGNKSAGGGGAPPPGVSCYLGAGAGGAASGSQSAYFGVGGGPVGGGGGGGAPPAASNDAGYFATPPAAPAGGSSTMTAVGGAPRGASTMTAVGGAPVGGSSTMTAVGGAPSGASTMTAIGGAPRGASTMTAVGGAPMGGGSTMTAVGGAPSGASTMTAVGGAPSGASTMTAIGGAPRGASTMTAVGGAPMGGSSTMTAVGGAPIGGSSTMTAVGGAPRGASTMTAVGGAPGGASTMTAMGGGPSAFGGAPPPPSGSAMGGGGGGGATSAYFGVGSGAMGGGGAGAQSAYFGVGGGPVGGGGGGAKSGGGGGGIPGQSVYMGAGGGGGGGGGGGATSAYFAPR | not soluble |
